The results in this text go back to publication PMC1500806, “Carrageenan Is a Potent Inhibitor of Papillomavirus Infection” (PLoS Pathogens, 2006).

The test system of data set [1] is HPV16 PsV. In kind it is cell-based, human papillomavirus. To be noted: HeLa cells, nonpolysaccharide compounds, dash = no inhibition at noncytotoxic doses. The protocol: Various candidate HPV infection inhibitors were tested using a PsV-based inhibition assay. The assay uses flow cytometric analysis to assess the inhibition of PsV-mediated delivery of a green fluorescent protein (GFP) reporter plasmid into HeLa cells. HPV16, an exceptionally oncogenic genital HPV type, was chosen as a model HPV for initial experiments.
(§1) Compounds were tested using a previously described PsV-based papillomavirus inhibition assay. Briefly, HeLa cells were plated at 6,000 cells/well in 50 μl of medium in 96-well plates. Candidate inhibitors were dissolved at 1–10 mg/ml (or reconstituted as directed by manufacturer) in sterile water or appropriate solvent, then subjected to a ten-point three-fold serial dilution covering an appropriate concentration range. Diluted candidate inhibitor (50 μl) was added to preplated HeLa cells, followed by 50 μl of diluted PsV stock. The cells were incubated for 24 h, fed by addition of 100 μl of DMEM-10, then subjected to flow cytometric analysis 48–56 h after infection. IC50 values and 95% CI were determined using Prism (GraphPad Software, San Diego, California, United States) to calculate a variable slope sigmoidal dose-response curve.
PsV doses were calibrated such that between 5% and 20% of cells scored as GFP^+ when no inhibitors were added. […] HPV5 PsV infection of HeLa cells was performed with a dose of 35 ng/ml L1. […]

Data set [2] relates to HeLa cells. In words: Cytotoxicity (WST-1 turnover and/or cell morphology). Format: cell-based. The conditions noted are these: >50% reduction in WST-1 turnover and/or altered cell morphology. The protocol:
as §1
Cytotoxicity was defined as a >50% reduction in the net turnover of the metabolic substrate WST-1 (Roche, Indianapolis, Indiana, United States) and/or by the appearance of dramatic alterations in the microscopic appearance of cell morphology at the time of harvest.
On the technique in general: Formazan colour is commonly taken as a measure of viable cells.

B1: Lactoferrin (protein, UniProt P24627 20-708, looked up)
Lactotransferrin: APRKNVRWCTISQPEWFKCRRWQWRMKKLGAPSITCVRRAFALECIRAIAEKKADAVTLDGGMVFEAGRDPYKLRPVAAEIYGTKESPQTHYYAVAVVKKGSNFQLDQLQGRKSCHTGLGRSAGWIIPMGILRPYLSWTESLEPLQGAVAKFFSASCVPCIDRQAYPNLCQLCKGEGENQCACSSREPYFGYSGAFKCLQDGAGDVAFVKETTVFENLPEKADRDQYELLCLNNSRAPVDAFKECHLAQVPSHAVVARSVDGKEDLIWKLLSKAQEKFGKNKSRSFQLFGSPPGQRDLLFKDSALGFLRIPSKVDSALYLGSRYLTTLKNLRETAEEVKARYTRVVWCAVGPEEQKKCQQWSQQSGQNVTCATASTTDDCIVLVLKGEADALNLDGGYIYTAGKCGLVPVLAENRKSSKHSSLDCVLRPTEGYLAVAVVKKANEGLTWNSLKDKKSCHTAVDRTAGWNIPMGLIVNQTGSCAFDEFFSQSCAPGADPKSRLCALCAGDDQGLDKCVPNSKEKYYGYTGAFRCLAEDVGDVAFVKNDTVWENTNGESTADWAKNLNREDFRLLCLDGTRKPVTEAQSCHLAVAPNHAVVSRSDRAAHVKQVLLHQQALFGKNGKNCPDKFCLFKSETKNLLFNDNTECLAKLGGRPTYEEYLGTEYVTAIANLKKCSTSPLLEACAFLTR
Turning to B1, in data set [1], the IC50 was determined as 13 µg/mL. In data set [2], this molecule returned a Cytotoxicity greater than 780 µg/mL.

The IC50 is the concentration that inhibits the measured activity by half.
